Measurements taken from patent US11883498B2, “Luteinizing hormone-releasing hormone receptor (LHRH-R) conjugates and uses thereof” (priority 2016, dated 2024).

Columns and labels:
LHRH-R = molecular target: T1, LHRH-R (Homo sapiens, UniProt P30968); test: In vitro binding assay of 99mTc radioactive conjugate by cell bound radioactivity; conditions: MDA-MB231 cells
T1 construct: LHRH-R positive breast cancer cell, MDA-MB231; endogenous in cells; host or cells: MDA-MB231 breast cancer cells
T1 sequence (P30968 1-328): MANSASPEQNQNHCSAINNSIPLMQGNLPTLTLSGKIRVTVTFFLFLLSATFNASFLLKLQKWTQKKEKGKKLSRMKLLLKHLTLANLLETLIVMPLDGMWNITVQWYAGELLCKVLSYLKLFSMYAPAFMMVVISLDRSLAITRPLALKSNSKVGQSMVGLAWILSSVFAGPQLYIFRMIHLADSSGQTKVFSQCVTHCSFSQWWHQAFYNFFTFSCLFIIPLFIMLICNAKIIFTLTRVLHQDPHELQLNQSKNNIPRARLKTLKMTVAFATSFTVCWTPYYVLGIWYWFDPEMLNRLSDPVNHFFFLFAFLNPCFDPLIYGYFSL
Experimental: In vitro binding assay. MDA-MB231 cells were seeded in 24 well plate and allowed to form a monolayer. […] The cells were incubated for 2 h at 37° C. and then rinsed three times with medium. After rinsing cells were dissolved by adding 0.5 ml of 0.25N NaOH to each well for 20 minutes. The cell bound radioactivity measured by using Packcard gamma counter and the Kd was calculated using the graphpad prism by plotting the cell bound radioactivity against the concentration of radiotracer. […] Solid circle indicates ^99mTc chelated conjugates whereas open circle indicates competition.
To determine the binding affinity, the MDA-MB231 cells were incubated with various concentrations of the radioactive conjugate JL-L1A either in the presence or absence of the unlabeled conjugate for 2 h at 37° C.

SKOV3 cells = type: cell-based, human; conditions: free drug, 2 h exposure + 66 h, 3H-thymidine incorporation
Experimental: (§1) In vitro determination of cell viability. MDA-MB231 and SKVO3 cells were seeded at a concentration of 10,000 cells per well on a 24 well plate and allowed to grow in monolayers. […] After incubating for 2 h at 37° C., cells were rinsed three times with fresh medium and then incubated in 0.5 ml fresh medium for an additional 66 h at 37° C. Sent medium was then replaced with 0.5 ml of medium containing ^3H-thymidine and incubated for additional 4 h. Cells were then again washed three times with the fresh medium and then incubated with 0.5 ml of 2.5% trichloroacetic acid for 10 min at room temperature. After removing the trichloroacetic acid, cells were dissolved in 0.25 N NaOH. Cell viability was determined by counting the incorporation of ^3H-thymidine in cells using scintillation counter (Packard, Packard Instrument Company). The IC50 value was derived from a plot of the percent of ^3H-thymidine incorporation versus log concentration using Graph Pad Prism 4.
(§2) In vitro cytotoxicity of tubulysin B hydrazide conjugate: To inspect the killing efficiency of the therapeutic conjugate, MDA-MB231 and SKOV3 cancer cells were incubated with various concentrations of JL-L3-TubBH either in the presence or absence of excess JL-L3, for 2 h at 37° C. After washing off the excess conjugate, the cells were incubated in fresh media for an additional 66 h followed by incubation with media containing ^3H-thymidine to assess cell viability. Radioactivity was counted using PerkinElmer's scintillation counter. The same procedure was repeated after exposing the cells to the free tubulysin B hydrazide.

MDA-MB231 cells = type: cell-based, human; conditions: free drug, 2 h exposure + 66 h, 3H-thymidine incorporation; read-out: IC50
Experimental: as §1, §2

[1] = test system: MDA-MB231 tumor xenografts; conditions: for Competition of kidney uptake by coadministered unlabeled conjugate: 100-fold excess unlabeled conjugate
Experimental: Animal Husbandry and in vivo tumor implantation. Female athymic nu/nu mice were purchased from Harlan laboratories. The animals were housed in a sterile environment and kept in 12 h light/day cycle. The animals have free access to rodent chow and water. 2×10^6 MDA-MB23 cells were suspended in 100 microliters of sterile phosphate buffer saline and injected subcutaneously into the right flank of each mouse.
In vivo imaging and biodistribution. All the animal experiments were conducted in accordance to the guidelines approved by Purdue Animal Care and Use Committee. The experiment was initiated once the tumor volume reached approximately 300-400 mm^3. Tumor volume was measured as 0.5×L×W2, where L is the longest axis and W is an axis perpendicular to L in mm. In the lateral tail vein, the mice were injected with 150 μCi of the radioactive conjugates (either in the presence or absence of excess of the unlabeled conjugates.) in 100 μl of sterile phosphate buffer saline For imaging mice were euthanized 2 h post injection by CO2 asphyxiation and imaged using Kodak Imaging Station. After imaging necroscopy was performed on animals to remove selected tissue and weighted. Tissue bound radioactivity was quantified by using gamma counter (Packard Gamma Counter) For time course study, the animals were sacrificed at following time points post injections: 2 h, 4 h, 6 h, and 8 h. Tissue of interest was weighed and the tissue bound radioactivity was counted by using gamma counter. Count per minute values of tissues bound radioactivity was decay corrected and converted into percentage injected dose per gram if the tissue (% ID/g). The data was analyzed by using GraphPad Prism.
In vivo whole body imaging and biodistribution of JL-L1A, JL-L2A and JL-L3A. In order to investigate the uptake of radioactive conjugates in LHRH-R positive tumors all the three conjugates (150 μCi) were injected the lateral vein of mice with MDA-MB231 tumors. For competition studies the mice were additional injected with 100-fold excess of the unlabeled conjugates. MDA-MB231 tumor bearing mice were injected with the ^99mTc chelated conjugates in their lateral tail vein (mice labeled as treated). Another group of mice were injected with the ^99mTc labeled molecules but in the presence of excess of the unlabeled conjugates. Images were taken 2 h post injections. FIG. 17A represents whole body imaging of JL-L1A whereas FIG. 17B and FIG. 17C represents the whole body imaging of JL-L2A and JL-L3A respectively. (n=5).
The further investigate the retention of 99mTc chelated JL-L3A, the radioactive conjugate was injected in mice with MDA-MB231 xenografts. After euthanizing the. Animals at 2 h, 4 h and 8 h post injection they were imaged and radioactivity associated with organs of interest was counted. […] MDA-MB231 tumor bearing mice were injected with the ^99mTc chelated conjugates in their lateral tail vein (mice labeled as treated). Another group of mice were injected with the ^99mTc labeled molecules but in the presence of excess of the unlabeled conjugates. Radioactivity of all the major organs and blood were determined 2 h post injection and the percentage injected dose per gram of the tissue was plotted. FIG. 18A represents biodistribution of JL-L1A whereas FIG. 18B and FIG. 18C represents the biodistribution of JL-L2A and JL-L3A respectively (n=5). Error bar indicates standard deviation.

With `Cc1c(-c2cccc(CCC(=O)NCCCCCCCC(=O)N[C@H](CCC(=O)NC[C@H](O)[C@@H](O)[C@H](O)[C@H](O)CO)C(=O)N[C@H](CCC(=O)O)C(=O)N[C@H](CCC(=O)NC[C@H](O)[C@@H](O)[C@H](O)[C@H](O)CO)C(=O)NC[C@H](N)C(=O)N[C@@H](CC(=O)O)C(=O)N[C@@H](CS)C(=O)O)c2)c(=O)n(C[C@H](N)c2ccccc2)c(=O)n1Cc1c(F)cccc1F` [JL-L3A] the Kd (LHRH-R; 99mTc chelated conjugate, 2 h at 37° C.) was 14.4 nM and the “Cell-bound radioactivity under competition” value (LHRH-R; presence of excess of competing ligand) was “diminished”.
For `CCCC(=O)OCN(C(=O)[C@@H](NC(=O)[C@H]1CCCCN1C)C(C)CC)[C@H](C[C@@H](OC(C)=O)c1nc(C(=O)N[C@@H](Cc2ccc(O)cc2)C[C@H](C)C(=O)NN)cs1)C(C)C` (stereo partly shown) [tubulysin B hydrazide, Tubulysin B hydrazide, reference compound], the IC50 (SKOV3 cells) was 0.005 nM and the IC50 (MDA-MB231 cells) was 0.067 nM.
`Cc1c(-c2cccc(CCC(=O)NCCCCCCCC(=O)N[C@H](CCC(=O)NC[C@H](O)[C@@H](O)[C@H](O)[C@H](O)CO)C(=O)N[C@H](CCC(=O)O)C(=O)N[C@H](CCC(=O)NC[C@H](O)[C@@H](O)[C@H](O)[C@H](O)CO)C(=O)NC[C@H](N)C(=O)N[C@@H](CC(=O)O)C(=O)N[C@@H](CS)C(=O)O)c2)c(=O)n(C[C@H](N)c2ccccc2)c(=O)n1Cc1c(F)cccc1F` (99mTc complex, metal not drawn) [JL-L3A] was tested, and the “Kidney and liver uptake” value ([1]; 99mTc conjugate) was “non-specific”, the “Competition of kidney uptake by coadministered unlabeled conjugate” value ([1]; 2 h post injection) was “not competed” and the Kidney uptake ([1]; 150 μCi, 2 h post injection) was “highest uptake in the kidney”. The Spleen uptake ([1]; 150 μCi, 2 h post injection) was “only minimal activity”, the “Biodistribution compared among the three conjugates” value ([1]; 2 h post injection) was “most favorable biodistributions” and the “Tissue distribution at 4 h and 8 h post injection” value ([1]; compared with 2 h post injection) was “same pattern as 2 h post injection”. For the same molecule, the “Tumor radioactivity intensity at 8 h relative to 2 h post-injection” value ([1]; time-dependent imaging, 2 h, 4 h, 8 h) was “less than half of the intensity at 2 h post-injection”.
`Cc1c(-c2cccc(CCC(=O)NCCOCCOCCOCCOCCOCCOCCC(=O)NC[C@H](N)C(=O)N[C@@H](CC(=O)O)C(=O)N[C@@H](CS)C(=O)O)c2)c(=O)n(C[C@H](N)c2ccccc2)c(=O)n1Cc1c(F)cccc1F` [JL-L2A] was tested, and the “Competition of kidney uptake by coadministered unlabeled conjugate” value ([1]; 2 h post injection) was “not competed”, the Kidney uptake ([1]; 150 μCi, 2 h post injection) was “highest uptake in the kidney” and the Spleen uptake ([1]; 150 μCi, 2 h post injection) was “significant non-specific uptake in the spleen”.
For `Cc1c(-c2cccc(CCC(=O)N[C@@H](CCC(=O)N[C@H](CCC(=O)NC[C@H](N)C(=O)N[C@@H](CC(=O)O)C(=O)N[C@@H](CS)C(=O)O)C(=O)O)C(=O)O)c2)c(=O)n(C[C@H](N)c2ccccc2)c(=O)n1Cc1c(F)cccc1F` [JL-L1A], the Tumor uptake ([1]; 150 μCi 99mTc conjugate i.v., 2 h post injection, with/without 100-fold excess unlabeled conjugate) was “highest uptake in the tumor” and the “Uptake in other organs” value ([1]; 150 μCi, 2 h post injection) was “uptake in other vital organs”.
